We go through one protein from PMC10942789, “Biomolecular condensates can both accelerate and suppress aggregation of α-synuclein” (Science Advances, 2022).

The data set deals with the molecule itself. The data set can be described thus: thioflavin T aggregation kinetics + transmission electron microscopy of fibrils; self-association into amyloid fibrils; 40 uM FL-αSyn or αSyn-108, or 160 uM NACore; 50 mM Hepes (pH 7.4), 100 mM NaCl, 100 uM EDTA, 20 uM ThT, 37°C, continuous linear shaking; without coacervates (reference), with supernatant or with coacervate droplets.

B1: NACore peptide (αSyn-68-78) (peptide)
peptide: GAVVTGVTAVA
notes: alpha-synuclein residues 68-78, from the non-amyloid-β component; source: synthetic peptide; bought: CASLO ApS (Denmark)
Take B1: the binding result is given as “binds”.
